B1: β7-subunit (natural protein, S. cerevisiae, UniProt P30657 34-266, looked up)
chain: TQQPIVTGTSVISMKYDNGVIIAADNLGSYGSLLRFNGVERLIPVGDNTVVGISGDISDMQHIERLLKDLVTENAYDNPLADAEEALEPSYIFEYLATVMYQRRSKMNPLWNAIIVAGVQSNGDQFLRYVNLLGVTYSSPTLATGFGAHMANPLLRKVVDRESDIPKTTVQVAEEAIVNAMRVLYYRDARSSRNFSLAIIDKNTGLTFKKNLQVENMKWDFAKDIKGYGTQKI
notes: 20S proteasome subunit β7, S. cerevisiae, without its 33-residue propeptide (β7pro); the last 10 residues of the C-terminal extension are not resolved there

For assay [1], the target named is T1, β5 precursor (β5-subunit with unprocessed β5-propeptide) (S. cerevisiae, UniProt P30656 1-287).
T1 construct: β5/Pre2, S. cerevisiae, unprocessed precursor with the whole 75-residue propeptide (all but -65, -64 and -13 resolved); numbers count on: the mature subunit (Thr1 = +1, propeptide residues negative); also called Pre2; precursor form of the β5-subunit
T1 sequence (looked up): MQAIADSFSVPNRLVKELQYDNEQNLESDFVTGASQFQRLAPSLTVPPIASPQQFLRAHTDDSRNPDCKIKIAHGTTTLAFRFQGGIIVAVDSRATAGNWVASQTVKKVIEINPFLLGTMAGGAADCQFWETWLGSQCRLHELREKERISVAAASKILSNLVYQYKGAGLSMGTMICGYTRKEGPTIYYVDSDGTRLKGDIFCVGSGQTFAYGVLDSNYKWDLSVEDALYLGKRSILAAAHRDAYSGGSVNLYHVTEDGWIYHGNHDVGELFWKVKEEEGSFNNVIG
Put plainly: cryo-EM structure; late-PC (doubly capped with Pba1-Pba2) isolated via FLAG-6xHis on β4 from pre1-1 cells; 2.1 Å with C2 symmetry, 2.3 Å without; sub-populations late-PC1 (2.7 Å) and late-PC2 (2.3 Å). The note with it: both partners purified.

The target in assay [2] is B1. Kind of assay: cryo-EM structure; uncapped, fully matured 20S pre1-1CP isolated via FLAG-6xHis on β4; 2.0 Å with C2 symmetry. The following applies: both partners purified.
The target in assay [3] is T2, β4-S142F (pre1-1) with FLAG-6xHis-tag (S. cerevisiae, UniProt P22141 1-198, S142F).
T2 construct: Pre1/β4, S. cerevisiae, mutant version of the pre1-1 strain; also called pre1-1-FH; Pre1/β4 (β4-S142F)
T2 sequence: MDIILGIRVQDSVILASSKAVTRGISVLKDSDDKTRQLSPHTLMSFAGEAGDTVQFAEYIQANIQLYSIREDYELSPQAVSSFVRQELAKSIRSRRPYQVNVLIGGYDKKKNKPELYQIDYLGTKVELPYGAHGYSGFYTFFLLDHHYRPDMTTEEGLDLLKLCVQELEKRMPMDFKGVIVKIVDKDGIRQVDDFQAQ
Put plainly: affinity purification with mass spectrometry; tandem affinity purification (FLAG, 6xHis on β4) from pre1-1 cells overexpressing Pba1-Pba2, separation by native PAGE, bands evaluated by MS. The note with it: partners not purified.

For assay [4], the target named is B1. Kind of assay: cryo-EM structure; late-PC (doubly capped with Pba1-Pba2) isolated via FLAG-6xHis on β4 from pre1-1 cells; 2.1 Å with C2 symmetry, 2.3 Å without; sub-populations late-PC1 (2.7 Å) and late-PC2 (2.3 Å). The note with it: both partners purified.
A further assay deals with T3, Blm10 (S. cerevisiae, UniProt P43583 1-2143).
T3 construct: also called Blm10 chaperone
Put plainly: cryo-EM structure; native pre1-1CP-Blm10 complex copurified via FLAG-6xHis on β4; 2.4 Å, no symmetry applied. The note with it: both partners purified.

T3 sequence (P43583 whole entry): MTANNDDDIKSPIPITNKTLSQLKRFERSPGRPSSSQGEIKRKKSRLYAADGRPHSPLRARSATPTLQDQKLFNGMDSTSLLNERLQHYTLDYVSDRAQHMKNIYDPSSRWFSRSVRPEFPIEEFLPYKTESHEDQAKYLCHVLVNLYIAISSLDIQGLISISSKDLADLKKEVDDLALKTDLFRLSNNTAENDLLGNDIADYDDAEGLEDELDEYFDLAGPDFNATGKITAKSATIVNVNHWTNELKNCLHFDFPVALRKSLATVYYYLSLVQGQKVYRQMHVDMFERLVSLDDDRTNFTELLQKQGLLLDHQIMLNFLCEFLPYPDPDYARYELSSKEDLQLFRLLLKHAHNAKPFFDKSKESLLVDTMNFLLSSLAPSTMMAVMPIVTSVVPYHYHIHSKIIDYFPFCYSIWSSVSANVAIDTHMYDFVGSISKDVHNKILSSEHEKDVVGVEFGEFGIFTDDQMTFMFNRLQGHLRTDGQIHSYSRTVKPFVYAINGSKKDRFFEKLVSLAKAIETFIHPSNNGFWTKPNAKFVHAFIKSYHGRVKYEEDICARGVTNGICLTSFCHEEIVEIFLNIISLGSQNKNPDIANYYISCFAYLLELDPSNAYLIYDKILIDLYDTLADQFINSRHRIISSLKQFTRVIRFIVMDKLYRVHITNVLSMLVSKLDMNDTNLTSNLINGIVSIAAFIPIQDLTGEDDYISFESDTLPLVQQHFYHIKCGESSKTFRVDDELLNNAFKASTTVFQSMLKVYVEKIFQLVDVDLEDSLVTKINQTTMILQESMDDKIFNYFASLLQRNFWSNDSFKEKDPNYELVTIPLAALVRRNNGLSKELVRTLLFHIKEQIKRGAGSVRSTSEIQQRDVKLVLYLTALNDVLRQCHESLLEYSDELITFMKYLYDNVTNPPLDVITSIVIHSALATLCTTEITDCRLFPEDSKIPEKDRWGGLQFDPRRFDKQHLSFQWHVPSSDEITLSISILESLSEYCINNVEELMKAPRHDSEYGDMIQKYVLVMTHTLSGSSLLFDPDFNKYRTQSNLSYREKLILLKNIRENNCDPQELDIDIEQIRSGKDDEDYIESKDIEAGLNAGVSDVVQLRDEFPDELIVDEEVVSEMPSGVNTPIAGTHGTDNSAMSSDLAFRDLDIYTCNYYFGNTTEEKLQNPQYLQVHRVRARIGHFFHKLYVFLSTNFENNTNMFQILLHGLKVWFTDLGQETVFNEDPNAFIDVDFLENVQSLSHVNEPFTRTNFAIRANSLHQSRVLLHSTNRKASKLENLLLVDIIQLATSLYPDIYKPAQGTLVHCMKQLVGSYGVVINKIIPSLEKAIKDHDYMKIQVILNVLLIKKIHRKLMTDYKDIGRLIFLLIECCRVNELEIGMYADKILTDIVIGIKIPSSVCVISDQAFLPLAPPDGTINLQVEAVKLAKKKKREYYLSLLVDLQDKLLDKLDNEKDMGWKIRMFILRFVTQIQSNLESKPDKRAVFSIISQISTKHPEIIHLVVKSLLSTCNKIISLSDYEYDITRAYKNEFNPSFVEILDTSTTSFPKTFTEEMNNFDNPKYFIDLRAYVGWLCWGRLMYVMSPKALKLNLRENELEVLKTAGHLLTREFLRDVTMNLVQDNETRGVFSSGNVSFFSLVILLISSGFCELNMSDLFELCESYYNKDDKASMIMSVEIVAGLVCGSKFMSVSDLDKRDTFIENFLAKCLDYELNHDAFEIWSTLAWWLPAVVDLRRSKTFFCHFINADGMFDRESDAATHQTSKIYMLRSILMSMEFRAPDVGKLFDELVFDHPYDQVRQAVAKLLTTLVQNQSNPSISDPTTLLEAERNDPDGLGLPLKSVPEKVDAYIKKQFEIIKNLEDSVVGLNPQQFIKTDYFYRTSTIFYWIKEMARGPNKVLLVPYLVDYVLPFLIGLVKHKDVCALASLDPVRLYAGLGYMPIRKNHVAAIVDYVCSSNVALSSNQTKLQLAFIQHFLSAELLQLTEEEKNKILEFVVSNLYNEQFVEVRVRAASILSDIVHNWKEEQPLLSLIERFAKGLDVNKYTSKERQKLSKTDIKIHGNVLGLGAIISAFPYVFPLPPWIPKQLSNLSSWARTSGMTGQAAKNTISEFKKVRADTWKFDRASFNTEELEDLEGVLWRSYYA

Consider B1, for which, in assay [1], the binding result was “binds”.

B2: β2-subunit, autocatalytically processed (natural protein, S. cerevisiae, UniProt P25043 30-261, looked up)
chain: TTIVGVKFNNGVVIAADTRSTQGPIVADKNCAKLHRISPKIWCAGAGTAADTEAVTQLIGSNIELHSLYTSREPRVVSALQMLKQHLFKYQGHIGAYLIVAGVDPTGSHLFSIHAHGSTDVGYYLSLGSGSLAAMAVLESHWKQDLTKEEAIKLASDAIQAGIWNDLGSGSNVDVCVMEIGKDAEYLRNYLTPNVREEKQKSYKFPRGTTAVLKESIVNICDIQEEQVDITA
notes: β2/Pup1, S. cerevisiae, mature subunit beginning at the active site Thr1 after cleavage of the Gly-1/Thr1 bond (29-residue propeptide removed); numbers count on: the mature subunit; also called Pup1; mature β2
B2: the binding result in the assay with β7-subunit [2] is “binds”.

B3: Ump1 (natural protein, S. cerevisiae, UniProt P38293 1-148, looked up)
chain: MNIVPQDTFKSQVSTDQDKSVLSSAVPSLPDTLRQQEGGAVPLSTQLNDRHPLESTLKNWETTQRQRQMEQYRQIFGIAEPMKRTMEMEIVNRTDFNPLSTNGSIHRDILLNKECSIDWEDVYPGTGLQASTMVGDDVHSKIEKQLGI
notes: residues 126-131 not resolved; two Ump1 molecules are encased in one late-PC, one in each half; also called ScUmp1; Ump1 chaperone
For B3, the binding result (in assay [3]; with β7-subunit [4]) was “binds” each time.

B4: β1-subunit, autocatalytically cleaved (mature, in pre1-1CP) (natural protein, S. cerevisiae, UniProt P38624 20-215, looked up)
chain: TSIMAVTFKDGVILGADSRTTTGAYIANRVTDKLTRVHDKIWCCRSGSAADTQAIADIVQYHLELYTSQYGTPSTETAASVFKELCYENKDNLTAGIIVAGYDDKNKGEVYTIPLGGSVHKLPYAIAGSGSTFIYGYCDKNFRENMSKEETVDFIKHSLSQAIKWDGSSGGVIRMVVLTAAGVERLIFYPDEYEQL
notes: β1/Pre3, S. cerevisiae, mature subunit beginning at Thr1; numbers count on: the mature subunit; also called Pre3
In the case of B4, the binding result with β7-subunit [2] was “binds”.

B5: β6-subunit (natural protein, S. cerevisiae, UniProt P23724 20-241, looked up)
chain: QFNPYGDNGGTILGIAGEDFAVLAGDTRNITDYSINSRYEPKVFDCGDNIVMSANGFAADGDALVKRFKNSVKWYHFDHNDKKLSINSAARNIQHLLYGKRFFPYYVHTIIAGLDEDGKGAVYSFDPVGSYEREQCRAGGAAASLIMPFLDNQVNFKNQYEPGTNGKVKKPLKYLSVEEVIKLVRDSFTSATERHIQVGDGLEILIVTKDGVRKEFYELKRD
notes: 20S proteasome subunit β6, S. cerevisiae, without its 19-residue propeptide (β6pro)
With B5, the binding result with β7-subunit [2] was “binds”.

B6: α5-subunit (natural protein, S. cerevisiae, UniProt P32379 1-260, looked up)
chain: MFLTRSEYDRGVSTFSPEGRLFQVEYSLEAIKLGSTAIGIATKEGVVLGVEKRATSPLLESDSIEKIVEIDRHIGCAMSGLTADARSMIEHARTAAVTHNLYYDEDINVESLTQSVCDLALRFGEGASGEERLMSRPFGVALLIAGHDADDGYQLFHAEPSGTFYRYNAKAIGSGSEGAQAELLNEWHSSLTLKEAELLVLKILKQVMEEKLDENNAQLSCITKQDGFKIYDNEKTAELIKELKEKEAAESPEEADVEMS
notes: 20S proteasome subunit α5, S. cerevisiae
Take B6: the binding result with Blm10 is recorded as “binds”.

B7: α6-subunit (natural protein, S. cerevisiae, UniProt P40302 1-234, looked up)
chain: MFRNNYDGDTVTFSPTGRLFQVEYALEAIKQGSVTVGLRSNTHAVLVALKRNADELSSYQKKIIKCDEHMGLSLAGLAPDARVLSNYLRQQCNYSSLVFNRKLAVERAGHLLCDKAQKNTQSYGGRPYGVGLLIIGYDKSGAHLLEFQPSGNVTELYGTAIGARSQGAKTYLERTLDTFIKIDGNPDELIKAGVEAISQSLRDESLTVDNLSIAIVGKDTPFTIYDGEAVAKYI
notes: 20S proteasome subunit α6, S. cerevisiae
Take B7: in the assay with Blm10, the binding result is recorded as “binds”.

These data come from article PMC11391049 (Life Science Alliance, 2024).
